Data on three molecules can be found in patent US20220073608A1 (JIANGSU HUAIYU PHARMACEUTICAL, published 2022).

The chains are these.
T1: biotinylated hSEMA4D ECD-His (human, UniProt Q92854 22-734, biotinylated with Biotin-X-X-NHS at a molar ratio of 8:1; sites not stated)
T1 construct: also called biotinylated immunogen; not shown: His tag of the pCP vector
T1 sequence: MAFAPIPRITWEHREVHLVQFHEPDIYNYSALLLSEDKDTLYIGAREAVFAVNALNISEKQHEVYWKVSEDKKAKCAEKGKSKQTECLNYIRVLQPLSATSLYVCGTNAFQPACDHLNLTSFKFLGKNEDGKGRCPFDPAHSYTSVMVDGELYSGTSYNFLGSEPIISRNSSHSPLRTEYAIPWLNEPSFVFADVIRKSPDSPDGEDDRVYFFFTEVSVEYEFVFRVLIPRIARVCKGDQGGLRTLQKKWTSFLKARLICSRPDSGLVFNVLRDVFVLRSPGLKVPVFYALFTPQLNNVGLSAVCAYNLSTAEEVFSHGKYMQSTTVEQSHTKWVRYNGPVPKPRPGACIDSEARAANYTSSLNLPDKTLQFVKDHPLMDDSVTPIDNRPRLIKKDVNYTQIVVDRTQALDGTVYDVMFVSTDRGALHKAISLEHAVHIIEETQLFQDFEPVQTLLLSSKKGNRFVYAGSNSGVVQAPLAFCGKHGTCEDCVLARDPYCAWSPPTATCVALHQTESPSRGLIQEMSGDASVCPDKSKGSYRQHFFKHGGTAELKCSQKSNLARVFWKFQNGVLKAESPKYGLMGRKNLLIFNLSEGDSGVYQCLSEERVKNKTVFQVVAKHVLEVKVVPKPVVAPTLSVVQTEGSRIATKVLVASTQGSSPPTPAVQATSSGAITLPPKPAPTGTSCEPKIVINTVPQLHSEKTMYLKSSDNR

B1: 32C8F10 (antibody, V domains shown)
VH: EVQLQQSGAELVRPGASVKLSCTASGFNIKDEYIHWVKQRPEQGLEWIGWIDPANGHTEYASRFQAKATITADTSSNTAYLQLSSLTSEDTAVYYCTTGDYDGFAYWGQGTLVTVST
VL: QIVLTQSPAIMSASPGEKVTISCSARSSVSYMYWYQQKPGSSPKPWIYRTSNLASGVPARFSGSGSGTSYSLTISSMEAEDAATYYCQHYHTYPYTFGGGTKLEIK
notes: Mouse monoclonal antibody purified from hybridoma supernatant on protein A
B2: 31C11G2 (antibody, V domains shown)
VH: B1 VH with A105V
VL: B1 VL with S22F
notes: as for B1
B3: 31G10C5 (antibody, V domains shown)
VH: B1 VH with E32D, T58I, R63N, A105T
VL: B1 VL
notes: as for B1

Where a chain is given by its changes, count along the chain named.

The target of one experiment is T1, biotinylated hSEMA4D ECD-His. The experiment is described as follows: FACS, blocking of biotinylated hSEMA4D ECD-His binding to 293F hPlexin B1 cells; Ab 2.67 nM. How it is done:
(§1) The medium was aspirated, the cells were washed once with PBS buffer (purchased from Invitrogen), and then treated with cell dissociation fluid (TrypLE™ Express Enzyme, purchased from Life technology), and the cells were collected. After the cells counted, the cells were washed once with PBS phosphate buffer, and diluted to 1×10⁶ cells per milliliter, and added to the 96-well FACS reaction plate as 100 μL per well. 2% (w/w) fetal calf serum was added to PBS phosphate buffer as FACS buffer, with which the cells were washed once by centrifugation at 2000 rpm 4° C. Meanwhile, the purified leading antibody and biotinylated hSEMA4D ECD-His were mixed and incubated on ice for 30 minutes. Then 100 μL of the mixture was added to each well and the plate was incubated on ice for 1 hour. […] Cells were washed 2 times by centrifugation with FACS buffer. The cells were suspended with 200 μL of FACS buffer, and FACS (FACS Verse, purchased from BD) was used to detect and analyze the results. The results are shown in FIGS. 11A-11B and Tables 20-21.
For orientation: A flow cytometer gives signals particle by particle.
On to B1, for which the “MFI (residual ligand binding)” value turned out to be 333.
With B2, the “MFI (residual ligand binding)” value stood at 415.
With B3, the “MFI (residual ligand binding)” value stood at 334.

A further experiment has the same target. As to the kind of experiment: FACS, blocking of biotinylated hSEMA4D ECD-His binding to 293F hPlexin B1 cells; Ab 13.3 nM. As for the experimental part: as §1
As for B1, the “MFI (residual ligand binding)” value came to 204.
As for B2, the “MFI (residual ligand binding)” value was 266.
On the same count and under the same terms, to B3 belongs 209.

For another experiment the target is unchanged. As to the kind of experiment: FACS, blocking of biotinylated hSEMA4D ECD-His binding to 293F hPlexin B1 cells; Ab 0.534 nM. As for the experimental part: as §1
For the molecule B1, the “MFI (residual ligand binding)” value is 420.
With B2, the “MFI (residual ligand binding)” value was determined as 513.
As to B3, the “MFI (residual ligand binding)” value amounted to 427.

For another experiment the target is unchanged. The experiment is described as follows: FACS, blocking of biotinylated hSEMA4D ECD-His binding to 293F hPlexin B1 cells; Ab 333 nM. As for the experimental part: as §1
On to B1, for which the “MFI (residual ligand binding)” value turned out to be 85.1.
Turning to B2, the “MFI (residual ligand binding)” value amounted to 50.8.
Turning to B3, the “MFI (residual ligand binding)” value is 45.4.
